Some targets named below: GRID2IP_2, A4D2P6; Inadl_9, Q8NI35; GRIP2_7, Q9C0E4; PARD3_3, Q8TEW0; DLG2_3, Q15700; Inadl_8, Q8NI35; AHNAK1, Q09666; DLG1_3, Q12959; GORASP1, Q9BQQ3; GOPC, Q9HD26; MAGI1_1, Q96QZ7; GRIP2_6, Q9C0E4.
Holding throughout (experiment): holdup assay
Common to all, as to design: key: below the threshold = too weak to quantify, mostly under pKd 3.1 to 4
What all share (conditions): plain residues with an end cap or a label only (N-terminal biotin on a linker: ado-ado)

A further assay concerns the target T1, MPDZ_5, O75970.
T1 sequence (O75970 695-796, limits assumed, looked up): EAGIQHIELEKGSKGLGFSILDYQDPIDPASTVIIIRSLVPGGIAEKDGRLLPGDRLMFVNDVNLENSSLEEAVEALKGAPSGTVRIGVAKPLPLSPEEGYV

The target of the next assay is T2, SHANK1, Q9Y566.
T2 sequence (Q9Y566 658-767, limits assumed, looked up): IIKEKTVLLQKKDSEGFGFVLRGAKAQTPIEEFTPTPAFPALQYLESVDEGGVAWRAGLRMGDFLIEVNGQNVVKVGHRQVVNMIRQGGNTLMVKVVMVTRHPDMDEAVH

The target in a further assay is T3, TJP3_3, O95049.
T3 sequence (O95049 375-456, limits assumed, looked up): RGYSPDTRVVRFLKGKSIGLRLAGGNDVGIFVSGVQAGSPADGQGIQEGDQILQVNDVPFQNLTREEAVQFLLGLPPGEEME

A further assay addresses T4, APBA1_1, Q02410.
T4 sequence (Q02410 651-752, limits assumed, looked up): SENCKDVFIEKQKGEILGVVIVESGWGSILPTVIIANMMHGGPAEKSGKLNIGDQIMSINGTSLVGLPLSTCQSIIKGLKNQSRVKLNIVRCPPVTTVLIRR

A further assay deals with T5, SNTG1, Q9NSN8.
T5 sequence (Q9NSN8 52-150, limits assumed, looked up): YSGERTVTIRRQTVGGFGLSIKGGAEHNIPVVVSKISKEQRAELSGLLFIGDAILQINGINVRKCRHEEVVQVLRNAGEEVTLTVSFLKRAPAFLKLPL

In a further assay the target is T6, SNTB1, Q13884.
T6 sequence (Q13884 107-205, limits assumed, looked up): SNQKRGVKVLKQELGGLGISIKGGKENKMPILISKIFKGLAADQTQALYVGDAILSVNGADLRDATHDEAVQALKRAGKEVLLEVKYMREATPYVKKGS

The next assay has as its target T7, NHERF3_1, Q5T2W1.
T7 sequence (Q5T2W1 4-100, limits assumed, looked up): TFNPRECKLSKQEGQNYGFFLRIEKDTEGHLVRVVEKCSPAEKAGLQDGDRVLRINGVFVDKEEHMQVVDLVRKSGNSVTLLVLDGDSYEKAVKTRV

A further assay addresses T8, GRIP1_2, Q9Y3R0.
T8 sequence (Q9Y3R0 145-248, limits assumed, looked up): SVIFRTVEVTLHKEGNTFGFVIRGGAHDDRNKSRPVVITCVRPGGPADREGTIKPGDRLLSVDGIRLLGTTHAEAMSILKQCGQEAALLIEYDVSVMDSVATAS

Another assay addresses T9, SNTG2, Q9NY99.
T9 sequence (Q9NY99 68-166, limits assumed, looked up): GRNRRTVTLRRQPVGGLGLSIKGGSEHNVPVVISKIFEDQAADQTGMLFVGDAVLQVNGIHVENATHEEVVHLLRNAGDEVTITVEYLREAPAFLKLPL

Another assay deals with T10, GRIP1_5, Q9Y3R0.
T10 sequence (Q9Y3R0 568-668, limits assumed, looked up): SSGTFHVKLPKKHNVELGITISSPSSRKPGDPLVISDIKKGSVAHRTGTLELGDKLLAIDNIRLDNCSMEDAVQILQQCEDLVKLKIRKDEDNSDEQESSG

Another assay concerns the target T11, APBA2_1, Q99767.
T11 sequence (Q99767 563-664, limits assumed, looked up): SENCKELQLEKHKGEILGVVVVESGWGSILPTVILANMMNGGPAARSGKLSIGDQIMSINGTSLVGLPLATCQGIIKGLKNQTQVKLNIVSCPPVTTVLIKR

Another assay deals with T12, APBA3_1, O96018.
T12 sequence (O96018 389-490, limits assumed, looked up): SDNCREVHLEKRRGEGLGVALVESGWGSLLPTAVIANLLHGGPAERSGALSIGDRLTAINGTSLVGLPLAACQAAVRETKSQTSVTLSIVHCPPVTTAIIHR

Data on four molecules can be found in article PMC9482650, “Quantitative fragmentomics allow affinity mapping of interactomes” (Nature Communications, 2022).

Sequence of GORASP1, Q9BQQ3 (Q9BQQ3 1-208): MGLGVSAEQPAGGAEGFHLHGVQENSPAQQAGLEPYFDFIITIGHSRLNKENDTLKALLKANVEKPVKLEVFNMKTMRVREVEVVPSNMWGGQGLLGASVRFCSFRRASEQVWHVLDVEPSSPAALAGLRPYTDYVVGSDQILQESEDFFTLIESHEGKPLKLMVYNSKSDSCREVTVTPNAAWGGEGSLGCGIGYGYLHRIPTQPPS
Sequence of MAGI1_1, Q96QZ7 (Q96QZ7 1-106): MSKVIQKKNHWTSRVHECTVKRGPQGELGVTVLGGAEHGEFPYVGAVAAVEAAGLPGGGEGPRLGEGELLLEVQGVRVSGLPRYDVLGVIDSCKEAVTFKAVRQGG
Sequence of AHNAK1, Q09666 (Q09666 4-100): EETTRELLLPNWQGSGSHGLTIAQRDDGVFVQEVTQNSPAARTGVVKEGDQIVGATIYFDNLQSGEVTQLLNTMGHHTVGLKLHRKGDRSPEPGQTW
Sequence of GRIP2_6, Q9C0E4 (Q9C0E4 648-740): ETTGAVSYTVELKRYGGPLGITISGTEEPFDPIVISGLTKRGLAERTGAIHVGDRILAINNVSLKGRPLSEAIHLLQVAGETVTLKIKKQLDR
Sequence of GRIP2_7, Q9C0E4 (Q9C0E4 934-1023): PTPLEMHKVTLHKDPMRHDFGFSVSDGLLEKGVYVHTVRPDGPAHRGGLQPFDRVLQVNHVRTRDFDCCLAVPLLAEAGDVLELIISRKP
Sequence of Inadl_9, Q8NI35 (Q8NI35 1530-1615): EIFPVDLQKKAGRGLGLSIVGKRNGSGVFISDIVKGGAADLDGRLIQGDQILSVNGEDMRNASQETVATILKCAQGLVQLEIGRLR
Sequence of DLG1_3, Q12959 (Q12959 457-571): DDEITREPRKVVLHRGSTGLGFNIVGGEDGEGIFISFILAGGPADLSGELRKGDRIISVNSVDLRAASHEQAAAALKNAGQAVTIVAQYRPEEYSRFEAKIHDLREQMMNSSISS
Sequence of GRID2IP_2, A4D2P6 (A4D2P6 272-370): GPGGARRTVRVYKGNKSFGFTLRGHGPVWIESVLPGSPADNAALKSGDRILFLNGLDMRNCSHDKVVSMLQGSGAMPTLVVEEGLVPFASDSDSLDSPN
Sequence of PARD3_3, Q8TEW0 (Q8TEW0 582-685): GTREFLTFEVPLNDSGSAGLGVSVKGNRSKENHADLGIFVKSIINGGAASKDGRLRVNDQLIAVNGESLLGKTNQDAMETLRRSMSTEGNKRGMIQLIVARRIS
Sequence of Inadl_8, Q8NI35 (Q8NI35 1425-1530): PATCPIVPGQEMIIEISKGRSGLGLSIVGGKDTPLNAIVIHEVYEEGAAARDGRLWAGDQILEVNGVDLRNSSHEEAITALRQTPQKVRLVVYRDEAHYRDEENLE

B1: PLEKHG7, Q6ZR37 (peptide)
chain: FTLPAESSEI
By pKd is commonly meant −log10 of the Kd, conventionally taken in molar units. Turning to B1, the pKd result with MPDZ_5, O75970 was “below the threshold”; with SHANK1, Q9Y566, 4.17; in the assay with GRID2IP_2, A4D2P6, 4.2; with TJP3_3, O95049, “below the threshold”; with Inadl_9, Q8NI35, “below the threshold”; with GRIP2_7, Q9C0E4, “below the threshold”. Further, the pKd result with APBA1_1, Q02410 was “below the threshold”; with PARD3_3, Q8TEW0 it was “below the threshold”; with DLG2_3, Q15700, 3.75; with Inadl_8, Q8NI35, “below the threshold”; with SNTG1, Q9NSN8 it was “below the threshold”; in the assay with SNTB1, Q13884, “below the threshold”. In addition, the pKd entry is “below the threshold” with AHNAK1, Q09666; “below the threshold” with DLG1_3, Q12959; 3.52 with NHERF3_1, Q5T2W1; “below the threshold” with GORASP1, Q9BQQ3; “below the threshold” in the assay with GRIP1_2, Q9Y3R0; “below the threshold” with SNTG2, Q9NY99. Also, the negative-log Kd (pKd) result with GRIP1_5, Q9Y3R0 is “below the threshold”; with GOPC, Q9HD26, “below the threshold”; in the assay with MAGI1_1, Q96QZ7, “below the threshold”; with APBA2_1, Q99767, “below the threshold”; with GRIP2_6, Q9C0E4, “below the threshold”; with APBA3_1, O96018 it was “below the threshold”.

B2: ADGRA2, Q96PE1 (peptide)
chain: TGLWKSETTV
As to B2, the pKd result with MPDZ_5, O75970 was “below the threshold”; in the assay with SHANK1, Q9Y566 it was “below the threshold”; with GRID2IP_2, A4D2P6, “below the threshold”; in the assay with TJP3_3, O95049 it was “below the threshold”; with Inadl_9, Q8NI35, 3.75; with GRIP2_7, Q9C0E4, “below the threshold”. For the same molecule, the pKd result in the assay with APBA1_1, Q02410 was “below the threshold”; with PARD3_3, Q8TEW0, “below the threshold”; with DLG2_3, Q15700 it was 4.5; with Inadl_8, Q8NI35 it was 3.65; with SNTG1, Q9NSN8, 4.21; with SNTB1, Q13884 it was 4.55. Besides, the pKd entry in the assay with AHNAK1, Q09666 was “below the threshold”; with DLG1_3, Q12959, 4.38; with NHERF3_1, Q5T2W1, “below the threshold”; with GORASP1, Q9BQQ3, 3.5; with GRIP1_2, Q9Y3R0, “below the threshold”; with SNTG2, Q9NY99, 4.14. The negative-log Kd (pKd) result with GRIP1_5, Q9Y3R0 was “below the threshold”; with GOPC, Q9HD26, 3.78; with MAGI1_1, Q96QZ7, 3.55; in the assay with APBA2_1, Q99767, “below the threshold”; with GRIP2_6, Q9C0E4 it was “below the threshold”; in the assay with APBA3_1, O96018 it was “below the threshold”.

B3: RSBN1, Q5VWQ0 (peptide)
chain: NLQEHSTTSV
Take B3: the pKd result is “below the threshold” with MPDZ_5, O75970; 3.91 with SHANK1, Q9Y566; 3.8 with GRID2IP_2, A4D2P6; “below the threshold” with TJP3_3, O95049; “below the threshold” in the assay with Inadl_9, Q8NI35; “below the threshold” with GRIP2_7, Q9C0E4. The negative logarithm of the Kd (pKd) entry was “below the threshold” with APBA1_1, Q02410; “below the threshold” with PARD3_3, Q8TEW0; 4 with DLG2_3, Q15700; 3.81 with Inadl_8, Q8NI35; 3.65 with SNTG1, Q9NSN8; 3.99 in the assay with SNTB1, Q13884. Moreover, the negative-log Kd (pKd) entry is “below the threshold” with AHNAK1, Q09666; 3.76 in the assay with DLG1_3, Q12959; “below the threshold” with NHERF3_1, Q5T2W1; “below the threshold” with GORASP1, Q9BQQ3; “below the threshold” with GRIP1_2, Q9Y3R0; “below the threshold” in the assay with SNTG2, Q9NY99. For the same molecule, the pKd entry is “below the threshold” with GRIP1_5, Q9Y3R0; 3.57 with GOPC, Q9HD26; “below the threshold” with MAGI1_1, Q96QZ7; “below the threshold” with APBA2_1, Q99767; “below the threshold” in the assay with GRIP2_6, Q9C0E4; “below the threshold” in the assay with APBA3_1, O96018.

B4: EPHB6, O15197 (peptide)
chain: HLRQQGSVEV
On to B4, for which the pKd result in the assay with MPDZ_5, O75970 was “below the threshold”; with SHANK1, Q9Y566, “below the threshold”; with GRID2IP_2, A4D2P6, “below the threshold”; with TJP3_3, O95049, “below the threshold”; with Inadl_9, Q8NI35 it was 4.03; with GRIP2_7, Q9C0E4, “below the threshold”. The pKd result with APBA1_1, Q02410 is on record as “below the threshold”; in the assay with PARD3_3, Q8TEW0 it was “below the threshold”; in the assay with DLG2_3, Q15700, “below the threshold”; with Inadl_8, Q8NI35 it was “below the threshold”; with SNTG1, Q9NSN8, “below the threshold”; with SNTB1, Q13884, “below the threshold”. Further, the pKd result is on record as “below the threshold” with AHNAK1, Q09666; “below the threshold” in the assay with DLG1_3, Q12959; “below the threshold” with NHERF3_1, Q5T2W1; “below the threshold” with GORASP1, Q9BQQ3; “below the threshold” with GRIP1_2, Q9Y3R0; “below the threshold” with SNTG2, Q9NY99. Also, the pKd entry is “below the threshold” with GRIP1_5, Q9Y3R0; “below the threshold” in the assay with GOPC, Q9HD26; “below the threshold” in the assay with MAGI1_1, Q96QZ7; “below the threshold” in the assay with APBA2_1, Q99767; 3.93 with GRIP2_6, Q9C0E4; “below the threshold” with APBA3_1, O96018.
